In US10364296B2, “Antibodies specific for MMP9” (CALYPSO BIOTECH SA, priority 2014, dated 2019):
Residue numbers refer to the chain shown, from its start.

Legend:
[1] = molecular target: Human MMP9 (i.e. activated MMP9) (Homo sapiens, UniProt P14780); assay: MMP9 assay: DQ-gelatin digestion by pre-activated (caspase-cleaved) MMP9; assay type: biochemical; conditions: MMP9 assay with highly purified activated MMP9
Protocol: The functional neutralization of MMP9 catalytic activity towards the fluorogenic polymer substrate DQ-gelatin by some antibodies according to the invention was evaluated. The signature activity of MMP9 (and MMP2) is gelatin degradation. Gelatin is essentially an irreversibly denatured form derived from various collagens, several of which are considered key physiological substrates for MMP9. Unlike small peptidic substrates, the binding and recognition of gelatin (similar to that of collagen) by MMP9 is complex and known to be mediated via regions of the molecule other than the active site, including the fibronectin and PEX domains. In order to retain these physiologically relevant ‘exosite’ interactions and to facilitate the isolation of potential ‘non-classical’ allosteric neutralizer classes, a fluorogenically quenched soluble gelatin polymer (DQ-gelatin) was chosen as the key substrate for plate-based screening and ranking purposes. Substrate hydrolysis was mediated by truncated fragment of MMP9 (ie. pro-domain removed). The assay was performed in two modes. The first mode, named “MMP9 assay”, utilized pre-activated MMP9 (from engineered MMP9 containing a LETD caspase 8 recognition motif at the native cleavage junction) in which the pro-domain was first removed via directed caspase 8 cleavage. […]

MMP3-activated MMP9 [2] = molecular target: T1, MMP3-activated MMP9 (Homo sapiens, UniProt P14780); assay: Surface Plasmon Resonance (BIAcore) binding; conditions: for SPR binding to MMP3-activated MMP9 (in words): sensograms, 4.7 to 150 nM
T1 sequence (P14780 107-707): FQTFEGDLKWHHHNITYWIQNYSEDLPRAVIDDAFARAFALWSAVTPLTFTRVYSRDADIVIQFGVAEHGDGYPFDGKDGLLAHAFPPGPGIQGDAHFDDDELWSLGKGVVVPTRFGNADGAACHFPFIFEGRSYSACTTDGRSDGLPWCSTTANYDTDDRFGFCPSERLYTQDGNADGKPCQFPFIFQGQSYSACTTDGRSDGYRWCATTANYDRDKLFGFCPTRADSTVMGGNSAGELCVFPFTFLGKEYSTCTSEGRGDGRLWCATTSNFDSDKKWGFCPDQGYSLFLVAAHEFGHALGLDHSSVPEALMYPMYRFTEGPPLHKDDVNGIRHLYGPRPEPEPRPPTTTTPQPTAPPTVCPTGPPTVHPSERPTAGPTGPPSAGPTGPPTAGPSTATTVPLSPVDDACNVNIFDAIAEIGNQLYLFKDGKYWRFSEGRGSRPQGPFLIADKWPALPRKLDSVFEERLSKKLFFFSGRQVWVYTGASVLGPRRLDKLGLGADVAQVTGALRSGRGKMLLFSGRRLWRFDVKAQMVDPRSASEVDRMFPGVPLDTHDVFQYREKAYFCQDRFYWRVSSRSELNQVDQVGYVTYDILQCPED
Protocol: (§1) Sensorgrams of kinetics of binding are reported. Resonance unit (RU). All y axis-response (RU); all x axis-time (s).
(§2) Binding of anti-MMP9 antibodies towards recombinant human MMP9 antigen was characterized using standard Surface Plasmon Resonance (SPR) assay. In a first step, anti-MMP9 antibodies were captured by anti-human Fc antibody immobilized onto a BIAcore sensor chip. In a second step, pro-MMP9 or MMP3-activated MMP9 were titrated from 4.7 to 150 nM in 2-fold dilutions.

human pro-MMP9 [3] = molecular target: T2, human pro-MMP9 (Homo sapiens, UniProt P14780); assay: Surface Plasmon Resonance (BIAcore) binding; conditions: for SPR binding to pro-MMP9 (in words): sensograms, 4.7 to 150 nM
T2 sequence (P14780 20-707): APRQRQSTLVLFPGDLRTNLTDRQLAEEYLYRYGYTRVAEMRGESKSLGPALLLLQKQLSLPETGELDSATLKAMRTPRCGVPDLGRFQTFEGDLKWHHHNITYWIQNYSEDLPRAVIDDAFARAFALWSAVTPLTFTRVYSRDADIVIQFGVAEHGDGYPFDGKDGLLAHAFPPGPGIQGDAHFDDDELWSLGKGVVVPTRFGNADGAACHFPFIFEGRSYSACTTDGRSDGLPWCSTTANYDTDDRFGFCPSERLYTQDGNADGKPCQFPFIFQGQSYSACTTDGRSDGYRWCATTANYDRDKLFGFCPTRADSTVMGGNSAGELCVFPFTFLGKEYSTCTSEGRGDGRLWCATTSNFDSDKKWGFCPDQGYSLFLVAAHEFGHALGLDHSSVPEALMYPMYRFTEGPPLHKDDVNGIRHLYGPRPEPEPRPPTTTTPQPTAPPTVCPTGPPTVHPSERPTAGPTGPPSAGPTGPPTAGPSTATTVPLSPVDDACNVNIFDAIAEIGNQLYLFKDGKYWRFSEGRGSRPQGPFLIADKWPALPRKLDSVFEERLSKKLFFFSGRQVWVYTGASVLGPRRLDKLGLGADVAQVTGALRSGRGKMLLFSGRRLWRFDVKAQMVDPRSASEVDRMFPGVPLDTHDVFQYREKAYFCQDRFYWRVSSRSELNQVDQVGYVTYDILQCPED
Protocol: as §1, §2

MMP3-activated MMP9 [4] = molecular target: T1, MMP3-activated MMP9; assay: Direct binding ELISA; conditions: biotinylated antibody, antigen coated at 2.5 μg/ml
Protocol: (§3) MMP9 antigens were coated at 2.5 μg/ml. Controls were streptavidin-HRP alone (closed triangles), or human IgG4 isotype control plus biotinylated anti-human-IgG second step Fab antibody (closed squares).
(§4) Direct binding capacities of anti-MMP9 antibodies towards human pro-MMP9 and MMP3-activated human MMP9, respectively, were assessed using a standard ELISA protocol. Briefly, 96-well plates were coated with (2.5 μg/ml) of either form of MMP9 for 16 h at room temperature.

human pro-MMP9 [5] = molecular target: T2, human pro-MMP9; assay: Direct binding ELISA; conditions: biotinylated antibody, antigen coated at 2.5 μg/ml
Protocol: as §3, §4

MMP3-activated MMP9 [6] = molecular target: T1, MMP3-activated MMP9; assay: Competitive binding ELISA; conditions: pre-incubation with 50 μg/mL purified antibody
Excerpt: For panels A, B, C, results are expressed as mean±SD of corrected absorbance (A450-A620) for each condition performed in duplicate.

[7] = test system: MGC803 human gastric cancer cells; assay: Cancer cell invasion through Matrigel-coated transwell; assay type: cell-based; conditions: 10 μg/ml antibody, PMA 100 ng/ml, 16 h
Protocol: MGC803 human gastric cancer cells were incubated with Phorbol 12-Myristate 13-Acetate (PMA) and with a broad chemical inhibitor of MMPs (GM-6001), anti-MMP9 antibody (F20-VH/B08-VLc), isotype control or medium alone. Invading cells were quantified after 16 hours using Calcein-AM. Each condition was performed in duplicates and means and SD of fluorescence units are reported.
Cancer cell line invasion was assessed using Matrigel-coated transwells. Insert membranes of transwells (provided in kit from Cultrex—3455-024) were coated with basement membrane extract (BME ×0.5; provided in Cultrex's kit) and incubated for 24 h at 37° C. Meanwhile, MGC803 (human gastric cancer cell line—Easy-Bio, China) were starved in RPMI culture medium (Gibco—52400025) deprived of serum (starving medium). […] One hundred μl of treated cells were seeded into Matrigel-coated transwells and 500 μl of RPMI medium containing 10% FCS were added in the lower side of the transwell. Plates were incubated for 16 h at 37° C. Invading cells were quantified by incubation of the bottom side of transwell membrane with Calcein-AM, whose cleavage into fluorescent Calcein is proportional to cell counts. Emitted fluorescent signal (Excitation at 485 nm, emission at 520 nm) reflects efficiency of cell invasion through Matrigel.

[8] = test system: heterotopic intestinal grafts in C57BL/6 mice; assay: Heterotopic transplant mouse model of intestinal fibrosis; assay type: in vivo
Protocol: Donor (green fluorescent protein-marked C57BL/6-Tg UBC-GFP mice) small bowel resections were transplanted subcutaneously into the neck of recipient C57BL/6 mice. Mice were injected intraperitoneally at day 5, 8 and 10 with 30 mg/kg of an anti-MMP9 antibody of the invention (F20-VH/B08-VLc, variant F20-VH-GL1-V4-V9/B08-VL-GL6c), or isotype control antibody (IgG4), 5 mice per group. Small bowel grafts were explanted 14 days after transplantation. After explant, each graft was divided into three equal segments. The central segment was fixed in 4% formalin, and prepared for histopathological assessment. The two outer segments were snap frozen in liquid nitrogen and stored at −70° C. until RNA or protein extraction.
Histologic cross sections were stained with Sirius red to highlight collagen (red stain). Collagen layer thickness was determined by an independent investigator blinded to the type of experiment. Microscopic assessment was done using an AxioCam MRc5 on a Zeiss Axiophot microscope. The thickness of the collagen layer was measured with the AxioVision Release 4.7.2 software (Zeiss). Thickness was calculated from eight places in representative areas (in eight samples investigated for each time point) at 100-fold magnification. Statistical analyses were performed using PRISM 6 software. Unpaired t test was used for comparison among groups.

[9] = test system: DSS-induced colitis in BALB/c mice; assay: DSS-induced colitis mouse model; assay type: in vivo; conditions: Day 14, vs isotype control
Protocol: The therapeutic efficacy of an anti-MMP9 antibody according to the invention was assessed in a DSS-induced colitis model in BALB/c mice. Colitis was induced with 4% (w/v) DSS in drinking water for 5 days. Doses of 30 mg/kg F20-VH/B08-VLc (variant F20-VH-GL1-V4-V9/B08-VL-GL6c) or isotype control (IgG4) antibodies were intraperitoneally injected to groups of 10 mice at day 6, 9 and 12, and animals were sacrificed at day 14.
The course of the disease was evaluated in blind fashion by video endoscopy of the lower colon at days 6, 10 and 14. Colitis was scored visually on a scale of 0-14 based on the degree of ulceration, vascularisation, and granularity present in tissue and colon length involved as follows: ulceration (0, 1, 2 or 3), masking of vascularisation (0, 1, 2 or 3), granularity (0, 1, 2 or 3), erythema (0, 1, 2 or 3), length involved (0, 1: localized, 2: diffuse). Each mouse was assigned a single endoscopy score corresponding to the damage observed throughout the entire length of the colon examined.
At study termination (Day 14), distal colon was excised from each mouse, formalin-fixed and embedded in paraffin and sectioned for histology. All sections were stained with haematoxylin and eosin and examined in a fashion blind as to treatment groups. Tissues were scored for epithelium damage and infiltration of inflammatory cells according to the scoring scale of […] for each parameter. The histology score represents the sum of the epithelium damage and infiltration of inflammatory cell scores, and thus ranges from 0 to 8.

Sequence of Human MMP9 (i.e. activated MMP9) (P14780 107-707 limits assumed): as the sequence (P14780 107-707) above

comparative antibody 1: antibody known as AB0041, heavy chain SEQ ID NO: 44, light chain SEQ ID NO: 45; mouse monoclonal, WO 2013/130078 [reference compound]
decrease of DQ-gelatin digestion (in words) [1]: inactive | SPR binding to MMP3-activated MMP9 (in words) (MMP3-activated MMP9 [2]): bind well | SPR binding to pro-MMP9 (in words) (human pro-MMP9 [3]): binds well | ELISA direct binding to MMP3-activated MMP9 (in words) (MMP3-activated MMP9 [4]): strongly bind | ELISA direct binding to pro-MMP9 (in words) (human pro-MMP9 [5]): binds well

B1: F20-VH-GL1-V4-V9/B08-VL-GL6c: VH SEQ ID NO: 19; VL SEQ ID NO: 70; reformatted as human IgG4; the F20-VH/B08-VLc variant of Examples 5-12 (antibody, V domains shown)
VH: EVQLVESGGGLVQPGRSLRLSCAASGFTFNDYPMHWVRQAPGKGLEWVSGISSRSGSVGYAESVKGRFTISRDNAKNSLYLQMNSLRAEDTALYYCARDKIYYGSGSYDFYYYYGMDVWGQGTTVTVSS
VL: QSALTQPASVSGSPGQSITISCTGTSNDVGAYNRVSWYQQHPGKAPKLMIYGVSNRPSGVSNRFSGSKSGNTASLTISGLQAEDEADFYCTSYSSSTTSYVVFGGGTKVTVL
modifications: human IgG4 format; heavy chain F20-VH-GL1-V4-V9; light chain B08-VL-GL6c
SPR binding to MMP3-activated MMP9 (in words) (MMP3-activated MMP9 [2]): bind well | binding observed to pro-MMP9 (human pro-MMP9 [3]; SPR, at a 150 nM antibody concentration): < 1% | SPR binding to pro-MMP9 (in words) (human pro-MMP9 [3]): minimal signal | ELISA direct binding to MMP3-activated MMP9 (in words) (MMP3-activated MMP9 [4]): strongly bind | ELISA direct binding to pro-MMP9 (in words) (human pro-MMP9 [5]): only shows significant binding to pro-MMP9 at the highest concentration tested | competition with biotinylated comparative antibody 1 for binding to MMP9 (in words) (MMP3-activated MMP9 [6]): does not prevent binding of comparative antibody 1 | inhibition of migration of MGC803 cancer cells through Matrigel [7]: efficiently inhibits migration | occlusion of the intestinal lumen of the graft ([8]; 14 days after transplantation): partial occlusion of the intestinal lumen

B2: F20-VH/B08-VLc: VH SEQ ID NO: 11; VL SEQ ID NO: 69; HO candidate selected for lead optimization; name also used loosely for its tested variant (antibody, V domains shown)
VH: B1 VH with R54N, E62D, A88D, L93V
VL: B1 VL with A8R, I18V, M49L, N62T, Q81L, E83A
modifications: heavy chain F20-VH; light chain B08-VLc
Kd (MMP3-activated MMP9 [2]; SPR, MMP3-activated MMP9, calculated from the curves, read-out: KD (nM), antigen MMP9): 11.7 nM | Kd (human pro-MMP9 [3]; SPR, antibody captured by anti-human Fc, calculated from the curves, read-out: KD (nM), antigen Pro-MMP9): > 15000 nM | mean endoscopy score ([9]; 30 mg/kg i.p. day 6, 9, 12, p=0.005): significant improvement | mean colitis severity score (histology) ([9]; 30 mg/kg i.p.): decrease | mean score for epithelial damage ([9]; 30 mg/kg i.p.): decreased | mean score for infiltration of inflammatory cells ([9]; 30 mg/kg i.p.): decreased | loss of epithelial structure in heterotopic intestinal grafts ([8]; 30 mg/kg i.p. day 5, 8, 10, day 14, vs isotype control): significantly protects against loss of epithelial structure | collagen layer thickness in heterotopic intestinal grafts ([8]; 30 mg/kg i.p. day 5, 8, 10, day 14, vs isotype control, p<0.0001): reduces collagen layer thickness
